Source: the RNAGym collection of RNA variant scans (doi:10.1073/pnas.2313332121)

B1: TPR t1 (parent)
chain: GACCAAUCUGCCCUCAGAGCUCGAGAACAUCUUCGGAUGCAGAGGAGGCAGGCUUCGGUGGCGCGAUAGCGCCAACGUCCUCAACCUCCAAUGCAUCCCACCACAUGAUGAUGCCUGAAGAGCCUUGGUUUUUUG

Variants of: B1
Test: polymerase ribozyme fitness, log enrichment relative to wild type (log ratio); higher = more active; in vitro selection for triplet polymerase activity
Summary of the method: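 One round of in vitro selection, in triplicate, was applied to PCR-built, transcribed mutant libraries of each subunit of a heterodimeric triplet polymerase ribozyme. The steps were annealing with a biotinylated primer, partner subunit and triplets, incubation frozen at −7 °C, gel excision of extended constructs, streptavidin-bead capture and RT-PCR. Fitness is the logarithm, base 2, of genotype enrichment over wild-type enrichment from inverse-variance-weighted replicate averages of Illumina-sequenced inputs and outputs, keeping genotypes with ≥10 input reads and ≥1 read per output.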

| Variant | polymerase ribozyme fitness (log ratio) |
| --- | --- |
| GACCAAUCUGCCCUCAGAGCUCGGGAACAUCUUCGGAUGCAGAGGAGGCAGGCUUCGGUGGCGCGAUAGCGCCAACGUCCUCAACCUCCAAUGAAUCCCACCACAUGAUGAUGCCUGAAGAGCCUUGGUUUUUUG [A24G C94A] | -2.52 |
| GACCAAUCUGCCCUCAGAGCUCGGGAACAUCUUCGGAUGCAGAGGAGGCAGGCUUCGGUGGCGCGAUAGCGCCAACGUCCUCAACCACCAAUGCAUCCCACCACAUGAUGAUGCCUGAAGAGCCUUGGUUUUUUG [A24G U87A] | -1.94 |
| GACCAAUCUGCCCUCAGAGCUCGGGAACAUCUUCGGAUGCAGAGGAGGCAGGCUUCGGUCGCGCGAUAGCGCCAACGUACUCAACCUCCAAUGCAUCCCACCACAUGAUGAUGCCUGAAGAACCUUGGUUUUUUG [A24G G60C C79A G122A] | -5.59 |
| GACCAAUCUGCCCUCAGAGCUCGGGAACAUCUUCGCAUGCAGAGGAGGAAGGCUUCGGUGGCUCGAUAGCGCCAACGUCCUCAACCUCCAAUGCAUCCCACCACAUGAUGAUGCCUGAAGAGCCUUGGUUUUUUG [A24G G36C C49A G63U] | -4.77 |
| GACCAAUCUGCCCUCAGAGCUCGGGAACAUCUUCGGAUGCAGAGGAGGCAGGCUUCGGUGGCGCGAUAGCCCCAACGUCCUCAACCUCCAAUGCAUCCCACCACAUGAUGAUGCCUGAAUAGCCUUGGUUUUUUG [A24G G71C G120U] | -2.78 |
| GACCAAUCUGCCCUCAGAGCUCGGGAACAUCUUCGGAUGCAGAGGAGGCAGGCUUCGGUGGCGCGAUAGCGGCAACGUCCUCAACCUCCAAUGAAUCCCACCACAUGAUGAUGCCUGAAGAGCCUUGGUUUUUUG [A24G C72G C94A] | -2.87 |
| GACCAAUCUGCCCUCAGAGCUCGGGAACAUCUUCGGAUGCAGAGGAGGCAAGCUUCGGUGGCGCGAUAGCGCCAACGCCCUCAACCUCCAAUGCAUCCCACCACAUGAUGAUGCCUGAAGAGCCUUGGUUUUUUG [A24G G51A U78C] | -6.04 |
| GACCAAUCUGCCCUCAGAGCUCGGGAACAUCUUCGGAUGCAGAGGAGGCAGGCGUCCGUGGCGCGAUAGCGCCAACGUCCUCAACCUCCAAUGCAUCCCACCACAUGAUGAUGCCUGAAGAGCUUUGGUUUUUUG [A24G U54G G57C C124U] | -2.01 |
| GACCAAUCUGCCCUCAGAGCUCGGGAACAUCUUCGGAUGCAGAGGAGACAGGCUUCGGUGGCGCGAUAGCGCCAACGUCCUCGACCUCCAAUGCAUCCCACCACAUGAUGAUGCCUGAAGAGCCUUGGUUUUUUG [A24G G48A A83G] | -2.89 |
| GACCAAUCUGCCCUCAGAGCUCGGGAACAUCUUCGGAUGCAGAGGAGACAGGCUUCGGUGGCGUGAUAGCGCCAACGUCCUCAACCUCCAAUGCAUCCCACCACAUGAUGAUGCCUGAAGAGCCUUGGUUUUUUG [A24G G48A C64U] | -2.39 |
| GACCAAUCUGCCCUCAGAGCUCGGGAACAUCUUCGGAUGCAGAGGAGGCAGGCUUCGGUGGCUCGAUAGCGCCAACGUCCUCAACCUCCAAUGCAUCCCACCACAUGAUGAUUCCUGAAGAGCCUUGGUUUUUUG [A24G G63U G113U] | -6.59 |
| GACCAAUCUGCCCUCAGAGCUCGGGAACAUCUUCGGAUGCAGAGGAGGCAGGCUUCGGUGGCGCGAUAGCGCCAACGUCCUCAACCUCCAAUGCAUCCCACCACAUGAUGAUGCCUGAAGAGCCUUGAUUUUUUG [A24G G128A] | -3.49 |
| GACCAAUCUGCCCUCAGAGCUCGGGAACAUCUUCGGAUGCAGAGGAGGCAGGCUUCGGUGGCGCGAUAGCGCCAACGUCCUCAACCUCCAAUGCAUCCCACCACAUGAUGAUGCCUGAAGAGCCUUGUUUUUUUG [A24G G128U] | -4.32 |
| GACCAAUCUGCCCUCAGAGCUCGGGAACAUCUUCGGAUGCAUAGGAGGCAGGCUUCGGUUGCGCGAUAGCGCCAACGUCCUCAACCUGCAAUGCAUCCCACCACAUGAUGAUGCCUGAAGGGCCUUGGUUUUUUG [A24G G42U G60U C88G A121G] | -1.74 |
| GACCAAUCUGCCCUCAGAGCUCGGGAACAUCUUCGGAUGCAGAGGAAGCAGGCUUCGGUGGCGCGAUAGCGCAAACGUCCUCAACCUCCAAUGCAUCCCACCACAUGAUGAUGCCUGAAGAGCCUUGGUUUUUUG [A24G G47A C73A] | -1.58 |
| GACCAAUCUGCCCUCAGAGCUCGGGAACAUCUUCGGAUGCAGAUGAGGCAGGCUUCGGUGACGCGAUAGCGCCUACGUCCUCAACCUCCAAUGCAUCCCACCACAUGAUGAUGCCUGAAGAGCCUUGGUUUUGUG [A24G G44U G61A A74U U133G] | -3.56 |
| GACCAAUCUGCCCUCAGAGCUCGGGAACAUCUUCGGAUGCAGAGGAGGCAGGCUUCGGUGGCGCGAUAGCGCCAACGUCCUCAACCUCCAAUGCAUCCCACCACAUGAUGAUGCCUGAAGAGCAUUGGUUUUUUG [A24G C124A] | 0.386 |
| GACCAAUCUGCCCUCAGAGCUCGGGAACAUCUUCGGAUGCAGAGGAGGCAGGCUUCGCUGGCGCGAUAGCGCCAACGUCCUCAACCUCCAAUGCAUCCCACCACAUGAUGAUGCCUGUAGAGCCUUGGUUUUUUG [A24G G58C A118U] | -2.06 |
| GACCAAUCUGCCCUCAGAGCUCGGGAACAUCUUCGGAUGCAGAGGAGGCAGGCUUCGGUGGCGCGAUAGCGCCAACGUCCUGAACCUCCAAUGCAUCCCACCACAUGAUGAUGCCUGAAGAGCCUUGGUUUUUUG [A24G C82G] | -1.98 |
| GACCAAUCUGCCCUCAGAGCUCGGGAACAUCUUCGGAUGCAGAGGAGGCAGGCUUCGGUGGCGCGAUAGCCCCAACGUCCUCAACCUCCAAUGCAUCCCACCACAUGAUGAUGCCUGAAGAGCCUUGGUUUUUUG [A24G G71C] | -2.48 |
| GACCAAUCUGCCCUCAGAGCUCGGGAACAUCUUCGGAUGCAGAGGAGGCAGGCUUCGGUGGCGCGAUAGCGCCAACGUCCUCAACCUCCAAUGCAUCCCACCACAUGAUGAUGGCUGAAGAGCCUUGGUUUUUUG [A24G C114G] | -3.83 |
